Numbering of substitutions follows the chain as printed. Values belong to the binder of their own block, whether it stands above or below them.
Tests used:
[1] = molecular target: T1, hepatic lipase (HL) on hepatocyte (HepG2) cells (UniProt P11150 23-499, limits assumed); experiment: cell-based or functional assay
T1 sequence (looked up): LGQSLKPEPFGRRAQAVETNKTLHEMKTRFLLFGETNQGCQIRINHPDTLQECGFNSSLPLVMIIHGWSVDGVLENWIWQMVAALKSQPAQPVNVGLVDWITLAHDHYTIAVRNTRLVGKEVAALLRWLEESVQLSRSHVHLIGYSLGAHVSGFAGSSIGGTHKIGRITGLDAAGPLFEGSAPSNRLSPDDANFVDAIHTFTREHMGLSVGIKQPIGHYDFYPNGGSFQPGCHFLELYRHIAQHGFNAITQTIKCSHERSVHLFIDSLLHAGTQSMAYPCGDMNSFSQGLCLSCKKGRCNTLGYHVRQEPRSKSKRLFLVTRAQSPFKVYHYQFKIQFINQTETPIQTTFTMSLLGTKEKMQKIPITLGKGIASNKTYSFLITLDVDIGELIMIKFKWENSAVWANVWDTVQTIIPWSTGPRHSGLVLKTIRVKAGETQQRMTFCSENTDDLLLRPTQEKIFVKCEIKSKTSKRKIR

[2] = molecular target: lipoprotein lipase (LpL), SIGMA; experiment: cell-based or functional assay
Chain of lipoprotein lipase (LpL), SIGMA (P11151 29-478): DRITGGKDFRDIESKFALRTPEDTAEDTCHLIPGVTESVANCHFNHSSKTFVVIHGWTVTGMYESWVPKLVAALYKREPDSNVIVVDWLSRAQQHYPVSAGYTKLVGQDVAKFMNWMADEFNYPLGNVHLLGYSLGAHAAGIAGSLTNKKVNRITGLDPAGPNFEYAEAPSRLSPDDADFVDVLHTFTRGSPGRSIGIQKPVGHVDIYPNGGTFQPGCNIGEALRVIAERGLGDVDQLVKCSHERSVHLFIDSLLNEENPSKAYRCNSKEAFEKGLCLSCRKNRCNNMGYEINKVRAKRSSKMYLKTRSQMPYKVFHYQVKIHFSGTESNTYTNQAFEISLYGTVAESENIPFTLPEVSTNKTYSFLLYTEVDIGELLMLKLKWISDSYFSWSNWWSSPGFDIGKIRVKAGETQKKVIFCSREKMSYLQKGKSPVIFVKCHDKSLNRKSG

hepatic lipase activity in cell culture [1]: ~3 fold
hepatic lipase activity in live hepatocytes, 10 µM peptide [1]: ~2.8 fold
B1: AV199-237 (peptide)
peptide: ARLSRCVQVLSRKLTLKAKALHARIQQNLDQLREELSRA

LpL activity in the absence of VLDL, 10 µM peptide [2]: ~1.6 fold
LpL activity in the presence of VLDL, 10 µM peptide [2]: ~8 fold
LpL activity in the presence of VLDL, relative to AV199-232 [2]: 44%
B2: AV-H/K (peptide)
peptide: ARLSRCVQVLSRKLTLKAKALKARIQQNLDQLRE

lipase stimulating activity, peptide (80 µg/ml) preincubated with VLDL (20 µg/ml) [2]: ~2 fold
B3: AV-H/K-2F (peptide)
peptide: B2 peptide with L10F, L29F
